Experimental data as given in paper PMC2849744.

Target: ANF-RGC 669WTAPELL675 deletion mutant (UniProt P18910)
Experiment: radioligand binding

Chain of UniProt P18910 (P18910 29-1057, stated change not applied): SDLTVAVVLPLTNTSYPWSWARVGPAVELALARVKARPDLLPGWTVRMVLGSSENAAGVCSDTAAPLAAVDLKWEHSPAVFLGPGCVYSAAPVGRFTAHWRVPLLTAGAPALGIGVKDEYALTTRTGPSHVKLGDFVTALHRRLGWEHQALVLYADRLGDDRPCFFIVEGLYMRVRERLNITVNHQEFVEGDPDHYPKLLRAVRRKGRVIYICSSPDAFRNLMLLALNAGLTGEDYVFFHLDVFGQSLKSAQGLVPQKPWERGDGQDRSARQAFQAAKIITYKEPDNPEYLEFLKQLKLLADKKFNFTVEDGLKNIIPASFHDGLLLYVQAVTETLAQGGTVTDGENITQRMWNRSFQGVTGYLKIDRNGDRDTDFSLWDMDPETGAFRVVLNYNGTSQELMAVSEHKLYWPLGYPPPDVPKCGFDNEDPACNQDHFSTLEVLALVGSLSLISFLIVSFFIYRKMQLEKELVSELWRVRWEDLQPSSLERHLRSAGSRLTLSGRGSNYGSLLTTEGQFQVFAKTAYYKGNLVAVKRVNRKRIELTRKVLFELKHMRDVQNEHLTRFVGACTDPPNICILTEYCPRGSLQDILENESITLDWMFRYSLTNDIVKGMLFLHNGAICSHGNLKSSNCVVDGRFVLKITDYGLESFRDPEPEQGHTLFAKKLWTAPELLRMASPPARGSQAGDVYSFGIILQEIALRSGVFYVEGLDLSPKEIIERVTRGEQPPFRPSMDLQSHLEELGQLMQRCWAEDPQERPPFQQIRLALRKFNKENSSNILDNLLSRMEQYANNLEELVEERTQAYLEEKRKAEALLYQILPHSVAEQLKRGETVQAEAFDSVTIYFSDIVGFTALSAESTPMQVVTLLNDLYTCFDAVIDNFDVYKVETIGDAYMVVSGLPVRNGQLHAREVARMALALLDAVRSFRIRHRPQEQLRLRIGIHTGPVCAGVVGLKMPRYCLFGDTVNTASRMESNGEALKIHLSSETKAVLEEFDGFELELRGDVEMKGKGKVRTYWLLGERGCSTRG

specific binding (pmol [125I]ANF/mg protein): 10.1
Substance: atrial natriuretic factor (ANF) (peptide)
